Measurements as given in US20230340114A1 (IMMUNE ONC THERAPEUTICS, published 2023).
Blank lines part the entries; values can stand above or below the binder they belong to.

Experiments:
[1] = target: T1, human LILRB4 expressed on cells (human, UniProt Q8NHJ6 22-448); experiment: FACS, CHO-K1 cells stably expressing human LILRB4; H7K3 in formulation buffer after 4 weeks at 40°C
T1 construct: whole, on cells; also called ILT3; CD85k
Procedure: (§1) EC50 FACS: Stable CHO-K1 cells expressing either human LILRB4 or flag-tagged cynomolgus monkey LILRB4 were used to determine binding capacity of stability samples of H7K3 antibody. CHO-K1 cells (1×10⁵) were stained with serially titrated stability samples followed by secondary staining with fluorescent-conjugated anti-human IgG (Biolegend). Geometric mean fluorescence (MFI) was measured and EC₅₀ were calculated by Prism.
(§2) The inventors then assessed the stability of the antibody H7K3 at 40° C. in PBS or a formulation buffer, the results of which are summarized in the Tables 2 and 3.

[2] = target: T2, flag-tagged cynomolgus monkey LILRB4 expressed on CHO-K1 cells (cynomolgus monkey); experiment: FACS, CHO-K1 cells stably expressing flag-tagged cyno LILRB4; H7K3 in PBS after 4 weeks at 40°C
T2 construct: whole, on cells; also called cyno LILRB4
Procedure: as §1, §2

[3] = target: T1, human LILRB4 expressed on cells; experiment: FACS, CHO-K1 cells stably expressing human LILRB4; H7K3 in formulation buffer, T0
Procedure: as §1

[4] = target: T2, flag-tagged cynomolgus monkey LILRB4 …; experiment: FACS, CHO-K1 cells stably expressing flag-tagged cyno LILRB4; H7K3 in formulation buffer after 2 weeks at 40°C
Procedure: as §1, §2

[5] = target: T2, flag-tagged cynomolgus monkey LILRB4 …; experiment: FACS, CHO-K1 cells stably expressing flag-tagged cyno LILRB4; H7K3 reference row of the formulation buffer stability table
Procedure: as §1

[6] = target: T1, human LILRB4 expressed on cells; experiment: FACS, CHO-K1 cells stably expressing human LILRB4; H7K3 reference row of the formulation buffer stability table; H7K3 reference row of Table 3 (formulation buffer), not a T0 or 40° C. sample
Procedure: as §1

[7] = target: T1, human LILRB4 expressed on cells; experiment: FACS, CHO-K1 cells stably expressing human LILRB4; H7K3 in PBS, T0
Procedure: as §1, §2

[8] = target: T2, flag-tagged cynomolgus monkey LILRB4 …; experiment: FACS, CHO-K1 cells stably expressing flag-tagged cyno LILRB4; H7K3 in formulation buffer after 4 weeks at 40°C
Procedure: as §1, §2

[9] = target: T1, human LILRB4 expressed on cells; experiment: FACS, CHO-K1 cells stably expressing human LILRB4; H7K3 in PBS after 4 weeks at 40°C
Procedure: as §1, §2

[10] = target: T2, flag-tagged cynomolgus monkey LILRB4 …; experiment: FACS, CHO-K1 cells stably expressing flag-tagged cyno LILRB4; H7K3 reference row of the PBS stability table
Procedure: as §1

[11] = target: T1, human LILRB4 expressed on cells; experiment: FACS, CHO-stable cells expressing human LILRB4
[12] = target: T2, flag-tagged cynomolgus monkey LILRB4 …; experiment: FACS, CHO-K1 cells stably expressing flag-tagged cyno LILRB4; H7K3 in PBS, T0
Procedure: as §1, §2

[13] = target: T2, flag-tagged cynomolgus monkey LILRB4 …; experiment: FACS, CHO-K1 cells stably expressing flag-tagged cyno LILRB4; H7K3 in PBS after 2 weeks at 40°C
Procedure: as §1, §2

[14] = target: T1, human LILRB4 expressed on cells; experiment: FACS, CHO-K1 cells stably expressing human LILRB4; H7K3 reference row of the PBS stability table
Procedure: as §1, §2

[15] = target: T2, flag-tagged cynomolgus monkey LILRB4 …; experiment: FACS, CHO-K1 cells stably expressing flag-tagged cyno LILRB4; H7K3 in formulation buffer, T0
Procedure: as §1, §2

[16] = target: T1, human LILRB4 expressed on cells; experiment: FACS, CHO-K1 cells stably expressing human LILRB4; H7K3 in PBS after 2 weeks at 40°C
Procedure: as §1, §2

[17] = target: T2, flag-tagged cynomolgus monkey LILRB4 …; experiment: FACS, CHO-stable cells expressing cyno LILRB4
[18] = target: T1, human LILRB4 expressed on cells; experiment: FACS, CHO-K1 cells stably expressing human LILRB4; H7K3 in formulation buffer after 2 weeks at 40°C
Procedure: as §1, §2

[19] = target: T1, human LILRB4 expressed on cells; experiment: cell-based or functional assay
[20] = target: T1, human LILRB4 expressed on cells; experiment: FACS (Geo MFI) on normal human monocytes; panel assigned to monocytes by the order in legend paragraph 86
[21] = target: T1, human LILRB4 expressed on cells; experiment: FACS (Geo MFI) on THP-1 cells; panel assigned to THP-1 by the order in legend paragraph 86

- EC50 [1]: 2.14 nM
- EC50 [2]: 1.72 nM
- EC50 [3]: 0.557 nM
- EC50 [4]: 3.81 nM
- EC50 [5]: 1.19 nM
- EC50 [6]: 0.65 nM
- EC50 [7]: 0.734 nM
- EC50 [8]: 6.05 nM
- EC50 [9]: 0.696 nM
- EC50 [10]: 1.19 nM
- EC50 [11]: 0.543 nM
- EC50 [12]: 1.21 nM
- EC50 [13]: 1.71 nM
- EC50 [14]: 0.65 nM
- EC50 [15]: 0.883 nM
- EC50 [16]: 0.895 nM
- EC50 [17]: 1.33 nM
- EC50 [18]: 1.42 nM
B1: H7K3 (antibody, V domains shown)
VH: EVQLVESGGGLVQPGGSLRLSCAASGFSLSSSYWISWVRQAPGKGLEWIGSIDSGSVGITYYATWVKGRFTISRDNSKNTLYLQMNSLRAEDTAVYYCARHGDNWALDLWGQGTLVTVSS
VL: DIQMTQSPSTLSASVGDRVTITCRASQSINSWLAWYQQKPGKAPKLLIYKASTLASGVPSRFSGSGSGTEFTLTISSLQPDDFATYYCQHGYIRGDLDNVFGGGTKVEIK
notes: Humanized from rabbit antibody B4-193; also called humanized anti-LILRB4 antibody; WT

- EC50 [11]: 0.415 nM
- EC50 (read off the curve) [20]: ~0.3 nM
- EC50 (read off the curve) [21]: ~0.5 nM
- EC50 [17]: 1.12 nM
B2: H7K3m5 (antibody, V domains shown)
VH: EVQLVESGGGLVQPGGSLRLSCAASGFSLSSSYWISWVRQAPGKGLEWIGSIDSGSVGITYYATWVKGRFTISRDNSKNTLYLQMNSLRAEDTAVYYCARHGDNWALDLWGQGTLVTVSS
VL: DIQMTQSPSTLSASVGDRVTITCRASQSISSWLAWYQQKPGKAPKLLIYKASTLASGVPSRFSGSGSGTEFTLTISSLQPDDFATYYCQHGYIRGDLDNVFGGGTKVEIK
notes: Full-length IgG; human IgG1 is used as its isotype control; Only variable regions are tied to the name; Wild type (fucosylated) form unless said otherwise; also called variant 9; K3m5 (N/S)
- T-cell cytotoxicity against THP-1-GFP cells, mean EC50 (n=3) [19]: 0.208 nM
